Experimental data from patent US20160185837A1 (Medimmune Limited, priority 2013, published 2016).
Read-outs that look alike come from different tables or passages of the source.

How the values were obtained:
Type in all cases: cell-based
[1] = target: T1, human GLP-1 receptor (hGLP-1r) (Homo sapiens, UniProt P43220); assay: BSA-cAMP assay, cells expressing human GLP-1 receptor; conditions: BSA-cAMP assay, read-out: hGLP1r cAMP activity EC50
T1 construct: expressed in transfected cells
In short: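 EC50 came from an unconstrained 4-parameter logistic fit of HTRF cAMP data expressed as percent of maximal native agonist activation, tested on two occasions. Thawed receptor-expressing cells (hGLP-1r, hGIPr at 0.5×10^5 cells/ml) treated 30 min at room temperature in 0.1% BSA-containing medium; two distinct hGIPr lines.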

[2] = target: T2, mouse GLP-1 receptor (mGLP-1r) (Mus musculus, UniProt O35659); assay: BSA-cAMP assay, cells expressing mouse GLP-1 receptor; conditions: BSA-cAMP assay, read-out: mGLP1r cAMP activity EC50
T2 construct: expressed in transfected cells; host or cells: HEK293s or CHO cells
T2 sequence (O35659 22-463): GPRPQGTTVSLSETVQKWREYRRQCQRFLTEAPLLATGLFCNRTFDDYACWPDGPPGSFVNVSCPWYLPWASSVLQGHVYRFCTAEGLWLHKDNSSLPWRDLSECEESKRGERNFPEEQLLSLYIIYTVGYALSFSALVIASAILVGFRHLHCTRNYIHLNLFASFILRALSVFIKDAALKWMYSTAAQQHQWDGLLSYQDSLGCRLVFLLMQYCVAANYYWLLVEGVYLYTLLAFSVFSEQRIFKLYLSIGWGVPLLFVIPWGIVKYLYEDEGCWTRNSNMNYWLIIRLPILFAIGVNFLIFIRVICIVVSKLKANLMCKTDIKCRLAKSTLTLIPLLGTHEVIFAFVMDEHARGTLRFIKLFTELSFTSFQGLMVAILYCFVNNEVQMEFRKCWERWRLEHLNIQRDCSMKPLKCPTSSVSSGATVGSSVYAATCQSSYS
In short: (§1)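 EC50 is the midpoint of an unconstrained 4-parameter logistic fit to HTRF cAMP data, expressed as percent of maximal native agonist response, from two separate occasions. Rodent (mouse, rat) GLP-1R- or GIPR-expressing cells were incubated with compound 30 min at room temperature in 0.1% BSA medium, in duplicate.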

[3] = target: T3, mouse GIP receptor (mGIPr) (Mus musculus, UniProt Q0P543); assay: BSA-cAMP assay, cells expressing mouse GIP receptor; conditions: BSA-cAMP assay, read-out: mGIPr cAMP activity EC50
T3 construct: expressed in transfected cells; host or cells: HEK293s or CHO cells
T3 sequence (Q0P543 19-460): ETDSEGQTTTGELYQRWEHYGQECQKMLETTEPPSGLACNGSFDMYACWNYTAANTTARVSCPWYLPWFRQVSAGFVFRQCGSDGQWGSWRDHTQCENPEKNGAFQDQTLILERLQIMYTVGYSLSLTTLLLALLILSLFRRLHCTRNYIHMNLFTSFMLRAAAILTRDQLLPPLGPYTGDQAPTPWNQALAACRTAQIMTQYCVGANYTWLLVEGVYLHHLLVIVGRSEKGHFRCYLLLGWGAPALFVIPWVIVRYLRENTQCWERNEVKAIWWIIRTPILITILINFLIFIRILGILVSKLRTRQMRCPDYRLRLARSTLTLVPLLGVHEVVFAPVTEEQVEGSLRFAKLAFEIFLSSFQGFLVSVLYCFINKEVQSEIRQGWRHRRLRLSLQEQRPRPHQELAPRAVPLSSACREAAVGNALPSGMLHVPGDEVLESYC
In short: as §1

rat GIP receptor (rGIPr) = target: T4, rat GIP receptor (rGIPr) (Rattus norvegicus, UniProt P43219); assay: BSA-cAMP assay, cells expressing rat GIP receptor; conditions: BSA-cAMP assay, read-out: rGIPr cAMP activity EC50
T4 construct: expressed in transfected cells; host or cells: HEK293s or CHO cells
T4 sequence (P43219 19-455): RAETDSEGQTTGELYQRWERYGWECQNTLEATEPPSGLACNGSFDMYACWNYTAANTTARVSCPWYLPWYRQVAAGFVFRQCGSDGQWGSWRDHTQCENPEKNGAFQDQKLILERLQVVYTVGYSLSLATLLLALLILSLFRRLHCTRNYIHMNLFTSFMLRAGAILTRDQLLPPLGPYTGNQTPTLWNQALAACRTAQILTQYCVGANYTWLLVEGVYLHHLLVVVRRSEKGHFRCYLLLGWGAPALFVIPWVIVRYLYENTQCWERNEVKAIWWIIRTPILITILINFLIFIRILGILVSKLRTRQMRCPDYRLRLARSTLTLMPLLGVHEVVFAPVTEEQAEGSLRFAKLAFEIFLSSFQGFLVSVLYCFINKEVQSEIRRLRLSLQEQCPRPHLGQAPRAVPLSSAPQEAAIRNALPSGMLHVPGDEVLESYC
In short: as §1

[4] = target: T5, human glucagon receptor (GCGr) (Homo sapiens, UniProt P47871); assay: BSA-cAMP assay, cells expressing human glucagon receptor
T5 construct: expressed in transfected cells; host or cells: HEK293s or CHO cells
T5 sequence (P47871 26-477): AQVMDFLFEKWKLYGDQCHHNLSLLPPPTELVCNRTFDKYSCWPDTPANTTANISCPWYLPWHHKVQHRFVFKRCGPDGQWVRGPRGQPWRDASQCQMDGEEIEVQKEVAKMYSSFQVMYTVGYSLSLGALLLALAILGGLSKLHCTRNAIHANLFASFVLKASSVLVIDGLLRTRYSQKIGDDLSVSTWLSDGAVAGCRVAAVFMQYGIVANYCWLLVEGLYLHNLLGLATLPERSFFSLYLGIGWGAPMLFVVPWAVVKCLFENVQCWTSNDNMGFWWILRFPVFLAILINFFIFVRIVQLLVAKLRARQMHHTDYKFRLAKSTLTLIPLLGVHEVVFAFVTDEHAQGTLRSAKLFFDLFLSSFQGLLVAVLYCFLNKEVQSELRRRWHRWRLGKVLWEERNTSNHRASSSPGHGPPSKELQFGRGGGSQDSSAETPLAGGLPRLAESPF

[5] = Batch 1, read-out: hGCGr cAMP activity EC50
[6] = Batch 2, read-out: hGCGr cAMP activity EC50

T1 sequence (P43220 24-463): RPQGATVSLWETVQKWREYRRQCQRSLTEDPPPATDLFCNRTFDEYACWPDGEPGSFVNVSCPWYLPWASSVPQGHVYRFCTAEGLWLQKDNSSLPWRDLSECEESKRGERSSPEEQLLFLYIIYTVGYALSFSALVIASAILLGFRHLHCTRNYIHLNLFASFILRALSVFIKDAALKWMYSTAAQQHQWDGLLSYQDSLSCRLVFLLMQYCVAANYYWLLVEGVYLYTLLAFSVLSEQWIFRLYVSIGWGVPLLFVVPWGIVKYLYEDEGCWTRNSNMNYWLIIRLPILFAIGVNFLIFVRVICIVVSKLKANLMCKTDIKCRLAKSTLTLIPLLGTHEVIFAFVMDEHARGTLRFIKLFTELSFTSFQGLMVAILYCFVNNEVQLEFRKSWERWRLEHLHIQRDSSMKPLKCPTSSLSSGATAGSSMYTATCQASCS

Row | EC50 ([1]; Batch 1) [nM] | EC50 ([1]; Batch 2) [nM] | EC50 ([2]; Batch 1) [nM] | EC50 ([3]; Batch 1) [nM] | EC50 (rat GIP receptor (rGIPr); Batch 1) [nM] | EC50 [4, 5] [nM] | EC50 [4, 6] [nM] | EC50 ([2]; Batch 2) [nM] | EC50 ([3]; Batch 2) [nM] | EC50 (rat GIP receptor (rGIPr); Batch 2) [nM] | Substance
1 | 160 | 260 | 2500 | > 3930 | 130 | 3800 | 3800 |  |  |  | IP320 (YSEGTFTSDYAAAAEAAAAAAFAAWLAAAAGGGGGSGGGGSGGGGSGGGGSACPPC)
2 | 0.11 | 0.11 | 1.2 | 0.28 | 0.19 | 330 | 250 | 2.5 | 0.78 | 0.014 | IP396 (YSEGTFTSDYSKLLERQAIDEFIAWLLKGGGGGGGSGGGGSGGGGSGGGGSACPPC)
3 | 0.073 |  | 1.2 | 0.4 | 0.018 | > 440 |  |  |  |  | IP412: Fc fusion, IgG1-TM, SEQ ID NO:387; agonist peptide YSEGTFTSDYSKLLEEEANRLFIEWLLAGG (YSEGTFTSDYSKLLEEEANRLFIEWLLAGGGGGGSGGGGSGGGGSGGGGSATHTCPPC)
